Laboratory results: patent US20060241289A1
Values joined by “and” are separate entries in the source; they are usually repeats but may differ in a detail not shown here. Identical values can stand only once. Like-named read-outs stand apart in the source and are kept apart here.

Experiments:
[1] = target: TSH receptor coated onto plastic tubes (UniProt P16473); experiment: 125I-9D33 binding to TSHR coated tubes in the pool of healthy blood donor sera, no 90/672
[2] = target: TSH receptor coated onto plastic tubes (UniProt P16473); experiment: TSHR coated tubes; 9D33 IgG 1 µg/mL; competitor 125I-9D33
[3] = target: TSH receptor coated onto plastic tubes (UniProt P16473); experiment: TSHR coated tubes; 9D33 IgG 10 µg/mL; competitor 125I-hMAb TSHR1
[4] = target: TSH receptor coated onto plastic tubes (UniProt P16473); experiment: TSHR coated tubes; 9D33 IgG 10 µg/mL; competitor 125I-TSH
[5] = target: TSH receptor coated onto plastic tubes (UniProt P16473); experiment: TSHR coated tubes; 9D33 IgG 0.01 µg/mL; competitor 125I-9D33
[6] = target: TSH receptor coated onto plastic tubes (UniProt P16473); experiment: TSHR coated tubes; 9D33 IgG 0.1 µg/mL; competitor 125I-TSH
[7] = target: TSH receptor coated onto plastic tubes (UniProt P16473); experiment: TSHR coated tubes; 9D33 IgG 1 µg/mL; competitor 125I-hMAb TSHR1
[8] = target: TSH receptor coated onto plastic tubes (UniProt P16473); experiment: TSHR coated tubes; 9D33 IgG 0.01 µg/mL; competitor 125I-TSH
[9] = target: TSH receptor coated onto plastic tubes (UniProt P16473); experiment: TSHR coated tubes; 9D33 IgG 0.1 µg/mL; competitor 125I-hMAb TSHR1
[10] = target: TSH receptor coated onto plastic tubes (UniProt P16473); experiment: TSHR coated tubes; 9D33 IgG 0.001 µg/mL; competitor 125I-TSH
[11] = target: TSH receptor coated onto plastic tubes (UniProt P16473); experiment: TSHR coated tubes; 9D33 IgG 0.01 µg/mL; competitor 125I-hMAb TSHR1
[12] = target: TSH receptor coated onto plastic tubes (UniProt P16473); experiment: TSHR coated tubes; 9D33 IgG 0.001 µg/mL; competitor 125I-hMAb TSHR1
[13] = target: TSH receptor coated onto plastic tubes (UniProt P16473); experiment: TSHR coated tubes; 9D33 IgG 10 µg/mL; competitor 125I-9D33
[14] = target: TSH receptor coated onto plastic tubes (UniProt P16473); experiment: TSHR coated tubes; 9D33 IgG 0.1 µg/mL; competitor 125I-9D33
[15] = target: TSH receptor coated onto plastic tubes (UniProt P16473); experiment: TSHR coated tubes; 9D33 IgG 1 µg/mL; competitor 125I-TSH
[16] = target: TSH receptor coated onto plastic tubes (UniProt P16473); experiment: TSHR coated tubes; 9D33 IgG 0.001 µg/mL; competitor 125I-9D33
[17] = target: TSH receptor coated onto plastic tubes (UniProt P16473); experiment: 125I-9D33 binding to TSHR coated tubes in the pool of healthy blood donor sera
[18] = target: human TSH receptor on CHO cells (human) (UniProt P16473); experiment: cell-based or functional assay
[19] = target: human TSH receptor on CHO cells (human) (UniProt P16473); experiment: cell-based or functional assay; remark: listed apart in the source

B1: 9D33 IgG (mouse monoclonal antibody to the TSHR) (antibody, V domains shown)
VH: DVQIQQPGTELVKPGASVRLSCKASGYTFTTYWMHWVKQRPGQGLEWIGEIDPSDSYTNYNQKFKGKATLTVDKSSSTAYMHLSSLTSEDSAVYYCSRNYGSGYYFDYWGQGTTLTVSS
VL: GVEMTQSPAIMSASPGEKVTMTCSASSSVSYMHWYQQKSGTSPKRWIYDTSKLASGVPARFSGSGSGTSYSLTISSMETEDAATYYCQQWSSNPWTFGGGTKLEIK
125I-9D33 bound (% total counts added) [1]: 15%
inhibition of 125I-9D33 binding [2]: 64%
inhibition of 125I-hMAb TSHR1 binding [3]: 56%
inhibition of 125I-TSH binding [4]: 68%
inhibition of 125I-9D33 binding [5]: 9%
inhibition of 125I-TSH binding [6]: 34%
inhibition of 125I-hMAb TSHR1 binding [7]: 44%
inhibition of 125I-TSH binding [8]: 17%
inhibition of 125I-hMAb TSHR1 binding [9]: 21%
inhibition of 125I-TSH binding [10]: 0%
inhibition of 125I-hMAb TSHR1 binding [11]: 3%
inhibition of 125I-hMAb TSHR1 binding [12]: 0%
inhibition of 125I-9D33 binding [13]: 71%
inhibition of 125I-9D33 binding [14]: 35%
inhibition of 125I-TSH binding [15]: 58%
inhibition of 125I-9D33 binding [16]: 4%
125I-9D33 bound (% total counts added) [17]: 11%

B2: 2B4 IgG (mouse monoclonal antibody to the TSHR) (antibody, from another filing, V domains shown)
VH: DVQLQQSGTVLARPGASVRMSCKASGYSFTRYWIHWLKQRPGQGLEWIGAIFPGNRDTSYNQRFKGKAEVTAVTSASTAYLDLSSLTNEDSAVYYCTRWPYYGSIYVNFDYWGQGTTLTVSS
VL: DIVMTQSPLSLPVSLGDQASISCRTSQNLVHRNGNTYLHWYLQKPGQSPKLLIYKISNRFSGVPDRFSGSGSGTDFTLKISRVEAEDLGVYFCSQGTHVPPTFGGGTKLEIKR
mean pmol cyclic AMP/cell well; 2B4 IgG 100 µg/mL alone (pmol/cell well) [18]: 0.49
mean pmol cyclic AMP/cell well; pTSH 0.5 ng/mL plus 2B4 IgG 100 µg/mL (pmol/cell well) [18]: 0.78
pmol cyclic AMP/cell well; 2B4 IgG 100 µg/mL alone (pmol/cell well) [18]: 0.446 and 0.486 and 0.552
pmol cyclic AMP/cell well; pTSH 0.5 ng/mL plus 2B4 IgG 100 µg/mL (pmol/cell well) [18]: 0.878 and 0.71 and 0.742
x basal stimulation; 2B4 IgG 100 µg/mL alone [18]: 1.4 x basal
x basal stimulation; pTSH 0.5 ng/mL plus 2B4 IgG 100 µg/mL [18]: 2.3 x basal
mean pmol cyclic AMP/cell well; 2B4 IgG 100 µg/mL alone (pmol/cell well) [19]: 0.331
mean pmol cyclic AMP/cell well; hMAb TSHR1 Fab 5 ng/mL plus 2B4 IgG 100 µg/mL (pmol/cell well) [19]: 2.94
pmol cyclic AMP/cell well; 2B4 IgG 100 µg/mL alone (pmol/cell well) [19]: 0.298 and 0.318 and 0.376
pmol cyclic AMP/cell well; hMAb TSHR1 Fab 5 ng/mL plus 2B4 IgG 100 µg/mL (pmol/cell well) [19]: 3.32 and 2.63 and 2.86
x basal stimulation; 2B4 IgG 100 µg/mL alone [19]: 0.46 x basal
x basal stimulation; hMAb TSHR1 Fab 5 ng/mL plus 2B4 IgG 100 µg/mL [19]: 4 x basal
